Results taken from patent US20120020971A1.

B1: MAB8 (antibody, V domains shown)
VH: EVQLVESGGGLVKPGGSLRLSCAASGFTFSTYTMSWVRQAPGQGLEWVSSITRTSSNIYYADSVEGRFTISRDNAKNSLYLQMHSLRVEDTAVYYCARISGVVGPVPFDYWGQGTLITVSS
VL: DIQMTQSPSSLSASVGDRVTITCRASQTISKYLNWYQQKPGRAPKLLIYSASSLQSGVPSRFTGSGSGTDFTLTITSLQPEDFATYYCQQSYRPSQITFGPGTKVDIKR
B2: MAB53 (antibody, V domains shown)
VH: QVQLVQSGAEVRKPGSSVKVSCKVSGGIIRKYAINWVRQAPGQGLEWMGGIIAIFNTANYAQKFQGRVTITADESTSTVYMELSSLRSEDTALYYCARGMNYYSDYFDYWGQGSLVTVSP
VL: EIVLTQSPGTLSLSPGERATLSCRASQSVRSNNLAWYQHKPGQAPRLLIFGASSRATGIPDRFSGSGSGTDFTLTISRLEPEDFAVYYCQQYGSSPALTFGGGTKVEIKR

Assays:
Assay in all cases: FortéBio biosensor (biolayer interferometry), HA0 protein
[1] = target: HA0 protein from the H3 clade (influenza A virus, H3 clade (strain not stated))
[2] = target: HA0 protein from the H5 clade (influenza A virus, H5 clade (strain not stated))
[3] = target: HA0 protein of the H1 clade (influenza A virus, H1 clade (strain not stated))
[4] = target: HA0 protein from the H7 clade (influenza A virus, H7 clade (strain not stated))
[5] = target: HA0 protein from the H9 clade (influenza A virus, H9 clade (strain not stated))

| Binder | Kd [1] [nM] | Kd [2] [nM] | Kd [3] [nM] | Kd [4] [nM] | Kd [5] [nM] |
| --- | --- | --- | --- | --- | --- |
| B1 | 16 | 0.2 | 9 |  |  |
| B2 |  | 6 | 0.06 | 0.07 | 0.03 |
